Measurements published in the DeepSol protein solubility set.

test: soluble on expression in E. coli; label from the status in PepcDB or PDB records

Sequence	soluble on expression in E. coli
MAHHHHHHMDKDKDKSKNTPLLYQDTMNDLGDGLQNMDTLRLNRNGNTGNGNKNKTNGSKGVKGEYEKKKETNGHDDYVKESLNRMLESHIDQYFKGLDYYKNNPKCKIDPKIHLHGSEEIENYIVKEKIFVTTYFQYIDVYENAINVDEDLEKEEIVYVEVPKYVTKYKPKIVTNIIEKTIEIPSGEEIKQPKYNTVNVPYVIPNIVENEILVVLKKIIQPEIEITNEELEIEVEKYIPRLVPVNVYVPRYFGISAKAKGEPEESVRYVDLTQDQIDELMKELNPHLNELKVFNETQLKRMDEYMRESQMQARAHNFEPPQPQLITYDESGHCQSYDYSEFHRFKETCIKELTH	not soluble
GKDFTYNVDANVSFARNKILYMDEVPKQFSYMNQTGGSTGRQTGVYNYIRLYQYSDFITGADGELTLKPELPQPYQKVYPGDAMYADLNGDHIVDGNDKSVAGYATRPEYVFGMNMGFDWKGFNFTMQWVGSKNVNRMYDIEYRIPYTNAGKRGLLTYFYDGCWTPENQLGATYPRPSEESESWNSEPSTLWLVDASYLRLKSLSFGYTITGKKFLKKLGLSSLGLNFSGYNLLTFSPLKYLDPESDPNRFGDYPLIKVYSFGLNLNF	not soluble
MGSDKIHHHHHHMDTLFKALSDPARRAILDSLRARDGQSLTDLEPQLDMTRFGVMKHLKLLEDAGLIVTKRQGRFKYHYLNPMPLQEMLDRWVAPFLQPQARHLSDLKAKLERSHTMGKPDFMMQTFIRCTQDALWDALTKADQMAAYHFMCNEVRGNASVGNVTEFVLPDGNPMLRQVTTELDPKSRIAATFEPMFMGPDAPASHMVYLIEPQGETCKLTIEHYDMAPGQEGFAEGWARLASSLKSYLETGKAMKGAA	not soluble
RENRNGDLYSLIYGTVSSEAIDPVEKKPLYHFFPGSYVYSVGTIGCNFRCKHCQNWSISQVCLEDAYTKDILPEELVERALLSDSKSIAWTYNEPTIWHEYTYESAKLAKEAGLGTIYVTNGYMTPESLKHIAPYLDAANIDIKAFNEKFYHDIASAKLAPVLEASALAKELGIHVEITTLIIPGVNDSLDELRELSKWVYKNLGPDTPLHFTRFHPQYKMQDLSPTPVKTMENACKIATEEGMKYVYMGNV	not soluble
MELSSPITIYWDLPATAADPSLLLAIAAGIIDCRPLMLNVTSTAPTSPGWLGEVLERFRGGPAAVTLTIPPQAHDDTVRALVAHGAVRELLLDVDHADLLDSGEWQDEPSAGVSYAVTHGNWRELPTLVHYCLDRGITRLVLPMQRLYGGEPPFFLTMNEQRELANALDAEGGAQRLALTIHDPFLWRAFNPGVPFPQGGCQAANTMIAIAPDGGVYPCPTLPVRLGTAGEMPLQELIASEAKKALRRRLLEHPRACGACGELAECRGGCRGRAYVMHQSLEGEDPSCWLEHHHHHH	not soluble
MGSDKIHHHHHHATEADVEAAFNPYKNGFPSFPGLAAGTVVNKGNVEQFKDALDPGLYQIVKNGWDEIKVGPTTQFAMDKFYVEATKKNLNTAKLGAQNGEITGFVAGRPFPEEPKADDPRAGEKLAWNFKYGLNWGDNAAIYPFYWKYRNMTSGQVERTLKFNFHFLNFKHRVQHAPVPEVTPNPSELFRGIYVKVLEPQDLKNTQLLIQRYEDDLKFDDAYLYLGFQRRVRRLATGQTTDAFLGADLMIEDFEGYNGRISDMKWTFKGTKNILMPYYNHNELQLTDEFKDPSGYKFVDFGGQGGCFPKITWQLRKVYVLEAAPVLASHPVSKRVFHVDAQVFNINRTLIYDRKGELWKTFTIGKSHPDHHLPVNKGTGIAIDDSFSMIDVQAKHCTTGQFKGQVDPKLNPPSLFQVQNMRGGD	not soluble
MAHHHHHHMEGVSNILSIAGSDSCGGAGIQADIKTAMGLGCHCCTALVVLTAQNTKEVKRIVEIEEAFIVDQLDSIFADVTIDVVKLGVLYSKKIISLVSQYIVQMNKKRGKKLLVVFDPVFVSSSGCLLVENLEYIKFALDLICPISCIITPNFYECKVILQALDCQMDLSKANMTELCKLVTRMLDINACLLKSCNVGENSAEENEVYAVDHLCIRKVGSIPEGEVIQRDAGELGQSAPGGVTYLYDVYKLRSKRKPGVDVHGTGCTLSTAIACYLAKKHNILQSCIESKKYIYNCIRYAYPFGSKSQGLNHLKASQELPTFTDLEVIPIVQDSP	soluble
